Reference: patent publication US20200283521A1 (GRANULAR THERAPEUTICS, published 2020)

Experiments:
Experiment in all cases: cell array, transfected fixed HEK293 cells
[1] = biological target: T1, KRT19 (human, UniProt P08727)
T1 construct: expressed in transfected HEK293 cells
T1 sequence (looked up): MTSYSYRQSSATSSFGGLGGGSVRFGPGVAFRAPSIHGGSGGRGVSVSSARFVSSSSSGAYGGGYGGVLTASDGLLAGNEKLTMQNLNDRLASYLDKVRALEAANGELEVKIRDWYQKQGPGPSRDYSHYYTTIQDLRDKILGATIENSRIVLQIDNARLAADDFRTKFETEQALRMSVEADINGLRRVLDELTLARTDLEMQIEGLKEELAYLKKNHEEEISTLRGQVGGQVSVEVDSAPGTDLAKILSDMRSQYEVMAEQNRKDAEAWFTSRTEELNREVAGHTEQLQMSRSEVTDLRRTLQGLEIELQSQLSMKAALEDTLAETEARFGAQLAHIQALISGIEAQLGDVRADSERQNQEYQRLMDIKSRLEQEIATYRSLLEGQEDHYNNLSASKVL
Procedure: (§1) Transfection of all plasmids was confirmed by screening for the co-encoded marker ZS green (FIG. 13A).
(§2) Primary hits (duplicate spots) were identified by analysing fluorescence (AF647 and ZsGreenl) on ImageQuant. Vectors encoding all hits were sequenced to confirm their correct identities. […] Slides were analysed as above.

[2] = biological target: T2, SLMAP (human, UniProt Q14BN4)
T2 construct: expressed in transfected HEK293 cells
T2 sequence (looked up): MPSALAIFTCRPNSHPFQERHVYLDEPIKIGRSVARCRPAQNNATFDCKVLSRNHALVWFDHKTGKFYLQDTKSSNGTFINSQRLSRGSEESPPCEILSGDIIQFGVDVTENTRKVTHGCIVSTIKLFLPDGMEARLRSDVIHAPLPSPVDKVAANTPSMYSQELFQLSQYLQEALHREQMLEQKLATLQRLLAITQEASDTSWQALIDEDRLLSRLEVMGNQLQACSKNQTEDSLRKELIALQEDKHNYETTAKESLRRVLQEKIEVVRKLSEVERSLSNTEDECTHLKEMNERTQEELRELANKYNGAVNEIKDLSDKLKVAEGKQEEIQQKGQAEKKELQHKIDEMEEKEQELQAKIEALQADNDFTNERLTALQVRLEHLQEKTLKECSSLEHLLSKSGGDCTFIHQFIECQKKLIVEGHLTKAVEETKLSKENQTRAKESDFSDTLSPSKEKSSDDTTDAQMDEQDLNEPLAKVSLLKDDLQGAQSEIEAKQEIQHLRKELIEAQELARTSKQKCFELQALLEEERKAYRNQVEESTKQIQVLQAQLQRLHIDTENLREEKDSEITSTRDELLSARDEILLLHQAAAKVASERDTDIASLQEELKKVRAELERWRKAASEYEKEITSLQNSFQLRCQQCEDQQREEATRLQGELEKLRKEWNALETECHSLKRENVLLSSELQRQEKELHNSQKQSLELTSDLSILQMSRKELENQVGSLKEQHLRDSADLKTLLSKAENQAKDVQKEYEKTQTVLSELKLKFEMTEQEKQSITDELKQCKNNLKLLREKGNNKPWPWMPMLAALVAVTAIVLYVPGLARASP
Procedure: as §1, §2

[3] = biological target: T3, BAIAP2L2 (human, UniProt Q6UXY1)
T3 construct: expressed in transfected HEK293 cells
T3 sequence (looked up): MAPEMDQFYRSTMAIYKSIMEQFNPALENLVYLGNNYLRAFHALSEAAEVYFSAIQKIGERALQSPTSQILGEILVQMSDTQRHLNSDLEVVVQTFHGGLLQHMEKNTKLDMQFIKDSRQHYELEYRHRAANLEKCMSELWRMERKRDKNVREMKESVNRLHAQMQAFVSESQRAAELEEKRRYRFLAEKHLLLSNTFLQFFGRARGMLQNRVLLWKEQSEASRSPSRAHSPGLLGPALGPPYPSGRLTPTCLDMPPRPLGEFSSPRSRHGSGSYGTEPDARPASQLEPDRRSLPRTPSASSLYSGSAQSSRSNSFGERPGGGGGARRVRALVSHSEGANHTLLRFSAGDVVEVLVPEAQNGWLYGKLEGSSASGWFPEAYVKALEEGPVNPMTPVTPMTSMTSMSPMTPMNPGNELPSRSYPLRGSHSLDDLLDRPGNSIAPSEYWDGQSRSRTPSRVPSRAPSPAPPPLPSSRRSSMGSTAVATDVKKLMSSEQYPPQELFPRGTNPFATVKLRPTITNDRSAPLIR
Procedure: as §1, §2

[4] = biological target: T4, COL23A1 (human, UniProt Q86Y22)
T4 construct: expressed in transfected HEK293 cells
T4 sequence (Q86Y22 whole entry): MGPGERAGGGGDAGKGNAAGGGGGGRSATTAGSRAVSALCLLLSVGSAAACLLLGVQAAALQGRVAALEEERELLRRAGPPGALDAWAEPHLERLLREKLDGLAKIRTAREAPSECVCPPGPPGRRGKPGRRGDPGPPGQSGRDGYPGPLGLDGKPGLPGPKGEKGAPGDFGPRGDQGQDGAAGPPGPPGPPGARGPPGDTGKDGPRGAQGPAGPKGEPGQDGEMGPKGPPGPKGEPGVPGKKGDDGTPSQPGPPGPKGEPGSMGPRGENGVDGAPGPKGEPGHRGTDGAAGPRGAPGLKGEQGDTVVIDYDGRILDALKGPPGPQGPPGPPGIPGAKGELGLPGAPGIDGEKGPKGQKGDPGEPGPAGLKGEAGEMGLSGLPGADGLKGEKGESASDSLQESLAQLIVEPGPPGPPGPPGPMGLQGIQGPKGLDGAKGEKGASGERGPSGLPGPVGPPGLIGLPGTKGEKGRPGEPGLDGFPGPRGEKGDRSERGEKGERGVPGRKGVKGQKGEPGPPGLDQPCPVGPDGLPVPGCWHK
Procedure: as §1, §2

[5] = biological target: T5, OSM (human, UniProt P13725)
T5 construct: expressed in transfected HEK293 cells
T5 sequence (looked up): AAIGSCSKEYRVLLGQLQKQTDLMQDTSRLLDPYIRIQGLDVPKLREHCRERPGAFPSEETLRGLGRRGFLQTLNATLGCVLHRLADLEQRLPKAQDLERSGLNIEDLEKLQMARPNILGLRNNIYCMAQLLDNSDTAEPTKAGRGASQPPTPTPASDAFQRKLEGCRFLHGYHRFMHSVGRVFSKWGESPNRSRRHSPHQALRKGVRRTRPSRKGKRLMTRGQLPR
Procedure: as §1, §2

[6] = biological target: T6, EDN2 (human, UniProt P20800)
T6 construct: expressed in transfected HEK293 cells
T6 sequence (looked up): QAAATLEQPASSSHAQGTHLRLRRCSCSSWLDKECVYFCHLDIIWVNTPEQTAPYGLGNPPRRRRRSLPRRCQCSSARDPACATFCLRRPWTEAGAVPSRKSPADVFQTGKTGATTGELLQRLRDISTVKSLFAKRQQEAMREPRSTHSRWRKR
Procedure: as §1, §2

[7] = biological target: T7, EDN1 (human, UniProt P05305)
T7 construct: expressed in transfected HEK293 cells
T7 sequence (looked up): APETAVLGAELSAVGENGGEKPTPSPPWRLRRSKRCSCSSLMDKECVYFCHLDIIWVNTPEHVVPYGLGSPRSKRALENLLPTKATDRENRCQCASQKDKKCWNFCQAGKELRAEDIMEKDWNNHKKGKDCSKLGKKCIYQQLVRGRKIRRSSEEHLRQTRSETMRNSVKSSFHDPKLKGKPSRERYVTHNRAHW
Procedure: as §1, §2

binding result [1]: no binding (tested: 2 µg/ml)
binding result [2]: no binding (tested: 2 µg/ml)
binding result [3]: no binding (tested: 2 µg/ml)
binding result [4]: no binding (tested: 2 µg/ml)
binding result [5]: no binding (tested: 2 µg/ml)
binding result [6]: no binding (tested: 2 µg/ml)
binding result [7]: no binding (tested: 2 µg/ml)
B1: humanized h37M, human IgG1 (antibody, V domains shown)
VH: QVQLVQSGAEVKKPGASVKLSCKASGYTFTDYYINWVRQAPGKGLEWIARIYPGSGNTYYNEKFKGRATLTADKSTSTAYMQLSSLRSEDTAVYFCARGVYYFDYWGQGTTVTVSS
VL: DIVMTQSPSSLSASVGDRVTITCKASQNVRTNVAWYQQKPGKAPKALIYSASYRYSGVPDRFTGSGSGTDFTLTISSLQPEDFADYFCQQYNSYPRTFGGGTKVEIK
notes: human IgG1; terbium-labelled as the tracer of the HTRF assays; also called C-KIT-h37M; h37M-IgG1
